# From US20140087995A1 (published 2014)
# Numbered stars: 1 amine (or outer) side, 2 acyl side, 3 side chain; on linkers, the order of the positions; unused ones are H or OH. Bridge positions count the residues as written; N and C are the ends. Side chains are listed from the residue outwards. Ends that are not written are not given here. * marks the point of attachment. C20 diacid = O=C(O)CCCCCCCCCCCCCCCCCCC(=O)*; γGlu = O=C(O)[C@H](CCC(=O)[*:2])N[*:1]; AEEA = NCCOCCOCC(=O)O
# T1: rat amylin receptor (rat calcitonin receptor + rat RAMP 3) (rat, UniProt P32214 25-516; Q9JJ73 23-147)
# T1 construct: whole, on cells; Used as membranes prepared from BHK tk'ts 13 cells transiently transfected with rat calcitonin receptor and rat RAMP 3 (Assay VI); also called rAmylin-R; rat amylin 3(a) receptor
# T1 sequence (looked up) 1: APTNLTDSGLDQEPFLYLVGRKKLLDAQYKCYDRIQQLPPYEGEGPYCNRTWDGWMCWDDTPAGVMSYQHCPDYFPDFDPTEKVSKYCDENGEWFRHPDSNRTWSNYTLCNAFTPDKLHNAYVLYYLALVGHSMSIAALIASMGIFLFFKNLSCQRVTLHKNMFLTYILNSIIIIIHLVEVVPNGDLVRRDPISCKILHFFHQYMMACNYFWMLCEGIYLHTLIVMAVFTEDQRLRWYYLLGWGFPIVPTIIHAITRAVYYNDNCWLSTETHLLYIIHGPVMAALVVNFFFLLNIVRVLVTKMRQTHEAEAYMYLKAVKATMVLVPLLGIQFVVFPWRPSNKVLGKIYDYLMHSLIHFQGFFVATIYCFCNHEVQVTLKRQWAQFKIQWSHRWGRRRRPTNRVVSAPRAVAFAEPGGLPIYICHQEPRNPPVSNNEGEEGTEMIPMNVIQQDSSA
# T1 sequence (looked up) 2: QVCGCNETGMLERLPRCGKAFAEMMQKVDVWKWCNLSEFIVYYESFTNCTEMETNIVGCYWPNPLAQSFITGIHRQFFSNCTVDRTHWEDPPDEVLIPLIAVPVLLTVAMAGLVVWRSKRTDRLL
# T2: rat calcitonin receptor (rat, UniProt P32214 25-516)
# T2 construct: whole, on cells; Used as membranes prepared from BHK tk'ts 13 cells transiently transfected with the rat calcitonin receptor (Assay VIII); also called rCTR; rat calcitonin (a) receptor
# T2 sequence (looked up): T1 sequence (looked up) 1
# T3: human calcitonin receptor (human, UniProt P30988 25-474)
# T3 construct: whole, on cells; Used as membranes prepared from a BHK tk'ts 13 cell line stably transfected with the human calcitonin receptor (Assay VII); also called hCTR; hCT
# T3 sequence (looked up): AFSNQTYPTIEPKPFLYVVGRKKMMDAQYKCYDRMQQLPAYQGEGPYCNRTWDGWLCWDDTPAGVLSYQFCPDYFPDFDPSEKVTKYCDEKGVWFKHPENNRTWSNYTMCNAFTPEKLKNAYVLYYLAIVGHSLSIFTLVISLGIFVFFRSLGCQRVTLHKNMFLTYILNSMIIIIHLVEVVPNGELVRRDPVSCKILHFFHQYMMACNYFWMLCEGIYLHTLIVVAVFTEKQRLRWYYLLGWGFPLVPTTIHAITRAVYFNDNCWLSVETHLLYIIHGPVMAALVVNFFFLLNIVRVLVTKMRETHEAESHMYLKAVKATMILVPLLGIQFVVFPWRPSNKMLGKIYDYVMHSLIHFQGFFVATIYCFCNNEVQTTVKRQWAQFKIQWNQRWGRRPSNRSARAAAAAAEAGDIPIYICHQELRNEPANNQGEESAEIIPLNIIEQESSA
# B1: N^ε1-[2-[2-[2-[[(4S)-4-carboxy-4-(19-carboxynonadecanoylamino)butanoyl]amino]ethoxy]ethoxy]acetyl]-[Arg17,Pro21,Pro27,Pro29,Pro34]-h-amylin (peptide)
# peptide: K([AEEA-γGlu-C20 diacid])CNTATCATQRLANFLRHSSPNFGAIPSPTNVGPNTY-NH2
# modifications: disulfide 2-7; N-terminus assumed
# SMILES: CC[C@H](C)[C@H](NC(=O)[C@H](C)NC(=O)CNC(=O)[C@H](Cc1ccccc1)NC(=O)[C@H](CC(N)=O)NC(=O)[C@@H]1CCCN1C(=O)[C@H](CO)NC(=O)[C@H](CO)NC(=O)[C@H](Cc1c[nH]cn1)NC(=O)[C@H](CCCNC(=N)N)NC(=O)[C@H](CC(C)C)NC(=O)[C@H](Cc1ccccc1)NC(=O)[C@H](CC(N)=O)NC(=O)[C@H](C)NC(=O)[C@H](CC(C)C)NC(=O)[C@H](CCCNC(=N)N)NC(=O)[C@H](CCC(N)=O)NC(=O)[C@@H](NC(=O)[C@H](C)NC(=O)[C@@H]1CSSC[C@H](NC(=O)[C@@H](N)CCCCNC(=O)COCCOCCNC(=O)CC[C@H](NC(=O)CCCCCCCCCCCCCCCCCCC(=O)O)C(=O)O)C(=O)N[C@@H](CC(N)=O)C(=O)N[C@@H]([C@@H](C)O)C(=O)N[C@@H](C)C(=O)N[C@@H]([C@@H](C)O)C(=O)N1)[C@@H](C)O)C(=O)N1CCC[C@H]1C(=O)N[C@@H](CO)C(=O)N1CCC[C@H]1C(=O)N[C@H](C(=O)N[C@@H](CC(N)=O)C(=O)N[C@H](C(=O)NCC(=O)N1CCC[C@H]1C(=O)N[C@@H](CC(N)=O)C(=O)N[C@H](C(=O)N[C@@H](Cc1ccc(O)cc1)C(N)=O)[C@@H](C)O)C(C)C)[C@@H](C)O
# notes: Analogue of human amylin; also called compound 56
# B2: N^ε1-[2-[2-[2-[[(4S)-4-carboxy-4-(19-carboxynonadecanoylamino)butanoyl]amino]ethoxy]ethoxy]acetyl]-[Arg17,Pro21,Pro27,Pro34,His35]-h-amylin (peptide)
# peptide: K([AEEA-γGlu-C20 diacid])CNTATCATQRLANFLRHSSPNFGAIPSSTNVGPHTY-NH2
# modifications: disulfide 2-7; N-terminus assumed
# SMILES: CC[C@H](C)[C@H](NC(=O)[C@H](C)NC(=O)CNC(=O)[C@H](Cc1ccccc1)NC(=O)[C@H](CC(N)=O)NC(=O)[C@@H]1CCCN1C(=O)[C@H](CO)NC(=O)[C@H](CO)NC(=O)[C@H](Cc1c[nH]cn1)NC(=O)[C@H](CCCNC(=N)N)NC(=O)[C@H](CC(C)C)NC(=O)[C@H](Cc1ccccc1)NC(=O)[C@H](CC(N)=O)NC(=O)[C@H](C)NC(=O)[C@H](CC(C)C)NC(=O)[C@H](CCCNC(=N)N)NC(=O)[C@H](CCC(N)=O)NC(=O)[C@@H](NC(=O)[C@H](C)NC(=O)[C@@H]1CSSC[C@H](NC(=O)[C@@H](N)CCCCNC(=O)COCCOCCNC(=O)CC[C@H](NC(=O)CCCCCCCCCCCCCCCCCCC(=O)O)C(=O)O)C(=O)N[C@@H](CC(N)=O)C(=O)N[C@@H]([C@@H](C)O)C(=O)N[C@@H](C)C(=O)N[C@@H]([C@@H](C)O)C(=O)N1)[C@@H](C)O)C(=O)N1CCC[C@H]1C(=O)N[C@@H](CO)C(=O)N[C@@H](CO)C(=O)N[C@H](C(=O)N[C@@H](CC(N)=O)C(=O)N[C@H](C(=O)NCC(=O)N1CCC[C@H]1C(=O)N[C@@H](Cc1c[nH]cn1)C(=O)N[C@H](C(=O)N[C@@H](Cc1ccc(O)cc1)C(N)=O)[C@@H](C)O)C(C)C)[C@@H](C)O
# notes: Analogue of human amylin; also called compound 58
# B3: N^ε1-[2-[2-[2-[[(4S)-4-carboxy-4-(19-carboxynonadecanoylamino)butanoyl]amino]ethoxy]ethoxy]acetyl]-[Arg17,Pro21,Pro27,Pro31,His35]-h-amylin (peptide)
# peptide: K([AEEA-γGlu-C20 diacid])CNTATCATQRLANFLRHSSPNFGAIPSSTPVGSHTY-NH2
# modifications: disulfide 2-7; N-terminus assumed
# SMILES: CC[C@H](C)[C@H](NC(=O)[C@H](C)NC(=O)CNC(=O)[C@H](Cc1ccccc1)NC(=O)[C@H](CC(N)=O)NC(=O)[C@@H]1CCCN1C(=O)[C@H](CO)NC(=O)[C@H](CO)NC(=O)[C@H](Cc1c[nH]cn1)NC(=O)[C@H](CCCNC(=N)N)NC(=O)[C@H](CC(C)C)NC(=O)[C@H](Cc1ccccc1)NC(=O)[C@H](CC(N)=O)NC(=O)[C@H](C)NC(=O)[C@H](CC(C)C)NC(=O)[C@H](CCCNC(=N)N)NC(=O)[C@H](CCC(N)=O)NC(=O)[C@@H](NC(=O)[C@H](C)NC(=O)[C@@H]1CSSC[C@H](NC(=O)[C@@H](N)CCCCNC(=O)COCCOCCNC(=O)CC[C@H](NC(=O)CCCCCCCCCCCCCCCCCCC(=O)O)C(=O)O)C(=O)N[C@@H](CC(N)=O)C(=O)N[C@@H]([C@@H](C)O)C(=O)N[C@@H](C)C(=O)N[C@@H]([C@@H](C)O)C(=O)N1)[C@@H](C)O)C(=O)N1CCC[C@H]1C(=O)N[C@@H](CO)C(=O)N[C@@H](CO)C(=O)N[C@H](C(=O)N1CCC[C@H]1C(=O)N[C@H](C(=O)NCC(=O)N[C@@H](CO)C(=O)N[C@@H](Cc1c[nH]cn1)C(=O)N[C@H](C(=O)N[C@@H](Cc1ccc(O)cc1)C(N)=O)[C@@H](C)O)C(C)C)[C@@H](C)O
# notes: Analogue of human amylin; also called compound 57
# B4: N^ε1-[2-[2-[2-[[(4S)-4-carboxy-4-(19-carboxynonadecanoylamino)butanoyl]amino]ethoxy]ethoxy]acetyl]-[Arg17,Pro21,Pro27,Pro31]-h-amylin (peptide)
# peptide: K([AEEA-γGlu-C20 diacid])CNTATCATQRLANFLRHSSPNFGAIPSSTPVGSNTY-NH2
# modifications: disulfide 2-7; N-terminus assumed
# SMILES: CC[C@H](C)[C@H](NC(=O)[C@H](C)NC(=O)CNC(=O)[C@H](Cc1ccccc1)NC(=O)[C@H](CC(N)=O)NC(=O)[C@@H]1CCCN1C(=O)[C@H](CO)NC(=O)[C@H](CO)NC(=O)[C@H](Cc1c[nH]cn1)NC(=O)[C@H](CCCNC(=N)N)NC(=O)[C@H](CC(C)C)NC(=O)[C@H](Cc1ccccc1)NC(=O)[C@H](CC(N)=O)NC(=O)[C@H](C)NC(=O)[C@H](CC(C)C)NC(=O)[C@H](CCCNC(=N)N)NC(=O)[C@H](CCC(N)=O)NC(=O)[C@@H](NC(=O)[C@H](C)NC(=O)[C@@H]1CSSC[C@H](NC(=O)[C@@H](N)CCCCNC(=O)COCCOCCNC(=O)CC[C@H](NC(=O)CCCCCCCCCCCCCCCCCCC(=O)O)C(=O)O)C(=O)N[C@@H](CC(N)=O)C(=O)N[C@@H]([C@@H](C)O)C(=O)N[C@@H](C)C(=O)N[C@@H]([C@@H](C)O)C(=O)N1)[C@@H](C)O)C(=O)N1CCC[C@H]1C(=O)N[C@@H](CO)C(=O)N[C@@H](CO)C(=O)N[C@H](C(=O)N1CCC[C@H]1C(=O)N[C@H](C(=O)NCC(=O)N[C@@H](CO)C(=O)N[C@@H](CC(N)=O)C(=O)N[C@H](C(=O)N[C@@H](Cc1ccc(O)cc1)C(N)=O)[C@@H](C)O)C(C)C)[C@@H](C)O
# notes: Analogue of human amylin; also called compound 49
# B5: N^ε1-[2-[2-[2-[[(4S)-4-carboxy-4-(19-carboxynonadecanoylamino)butanoyl]amino]ethoxy]ethoxy]acetyl]-[Arg17,Pro21,Pro27,Pro34]-h-amylin (peptide)
# peptide: K([AEEA-γGlu-C20 diacid])CNTATCATQRLANFLRHSSPNFGAIPSSTNVGPNTY-NH2
# modifications: disulfide 2-7; N-terminus assumed
# SMILES: CC[C@H](C)[C@H](NC(=O)[C@H](C)NC(=O)CNC(=O)[C@H](Cc1ccccc1)NC(=O)[C@H](CC(N)=O)NC(=O)[C@@H]1CCCN1C(=O)[C@H](CO)NC(=O)[C@H](CO)NC(=O)[C@H](Cc1c[nH]cn1)NC(=O)[C@H](CCCNC(=N)N)NC(=O)[C@H](CC(C)C)NC(=O)[C@H](Cc1ccccc1)NC(=O)[C@H](CC(N)=O)NC(=O)[C@H](C)NC(=O)[C@H](CC(C)C)NC(=O)[C@H](CCCNC(=N)N)NC(=O)[C@H](CCC(N)=O)NC(=O)[C@@H](NC(=O)[C@H](C)NC(=O)[C@@H]1CSSC[C@H](NC(=O)[C@@H](N)CCCCNC(=O)COCCOCCNC(=O)CC[C@H](NC(=O)CCCCCCCCCCCCCCCCCCC(=O)O)C(=O)O)C(=O)N[C@@H](CC(N)=O)C(=O)N[C@@H]([C@@H](C)O)C(=O)N[C@@H](C)C(=O)N[C@@H]([C@@H](C)O)C(=O)N1)[C@@H](C)O)C(=O)N1CCC[C@H]1C(=O)N[C@@H](CO)C(=O)N[C@@H](CO)C(=O)N[C@H](C(=O)N[C@@H](CC(N)=O)C(=O)N[C@H](C(=O)NCC(=O)N1CCC[C@H]1C(=O)N[C@@H](CC(N)=O)C(=O)N[C@H](C(=O)N[C@@H](Cc1ccc(O)cc1)C(N)=O)[C@@H](C)O)C(C)C)[C@@H](C)O
# notes: Analogue of human amylin; also called compound 50
# Target: T1, rat amylin receptor (rat calcitonin …)
# Assay: SPA competition with 125I-rat amylin, membranes of BHK cells with rat CTR + rat RAMP3 (Assay VI)
row,IC50 [nM],Binder
1,0.04,B1
2,0.135,B2
3,0.181,B3
4,1.08,B4
5,0.069,B5

# Target: T2, rat calcitonin receptor
# Assay: IC50 on rat CTR divided by IC50 on rat amylin receptor (Assays VIII/VI)
row,Ratio rCT/rAmylin binding,Binder
1,131,B1
2,76.6,B2
3,135,B3
4,47.7,B4
5,81.7,B5

# Target: T3, human calcitonin receptor
# Assay: IC50 on human CTR divided by IC50 on human amylin receptor (Assays VII/V)
# Summary of the method: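 Membranes (35 ng/μL final) + SPA beads, 50 mM Hepes pH 7.4 buffer with 1 mM CaCl2, 5 mM MgCl₂, 0.1% OA, 0.02% Tween20; 120 min, 25° C, shaking; centrifuged, counted; IC₅₀ by one-site binding competition.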
row,Ratio hCT/hAmylin binding,Binder
1,42.6,B1
2,109,B2
3,133,B3
4,10.8,B4
5,36,B5

# Target: T2, rat calcitonin receptor
# Assay: SPA competition with 125I-calcitonin, membranes of BHK cells with rat CTR (Assay VIII)
row,IC50 [nM],Binder
1,5.26,B1
2,10.3,B2
3,24.4,B3
4,51.4,B4
5,5.63,B5
